Columns and labels:
[1] = test system: POU5F1 TALEN 101225 (NN half repeat) (Xanthomonas sp. (engineered)); experiment: cell_activity; conditions: paired with 101125; NN half repeat
[2] = test system: POU5F1 TALEN 101138 (Xanthomonas sp. (engineered)); experiment: cell_activity; conditions: paired with 101229
[3] = test system: TALE13 C-2 FokI (Xanthomonas axonopodis); experiment: cleavage_in_vitro; conditions: two sites, 12 bp spacer
[4] = test system: TALE13 C+11 FokI (Xanthomonas axonopodis); experiment: cleavage_in_vitro; conditions: two sites, 12 bp spacer
[5] = test system: TALE13 C+5 FokI (Xanthomonas axonopodis); experiment: cleavage_in_vitro; conditions: two sites, 12 bp spacer
[6] = test system: TALE13 C+17 FokI (Xanthomonas axonopodis); experiment: cleavage_in_vitro; conditions: two sites, 12 bp spacer
[7] = test system: POU5F1 TALEN 101229 (half repeat for G) (Xanthomonas sp. (engineered)); experiment: cell_activity; conditions: paired with 101138
[8] = test system: TALE test backbone, repeat 5 RVD HG (synthetic (Xanthomonas TALE)); conditions: ELISA
[9] = test system: TALE test backbone, repeat 5 RVD AE (synthetic (Xanthomonas TALE)); conditions: ELISA
[10] = test system: TALE test backbone, repeat 5 RVD RA (synthetic (Xanthomonas TALE)); conditions: ELISA
[11] = test system: TALE test backbone, repeat 5 RVD IG (synthetic (Xanthomonas TALE)); conditions: ELISA
[12] = test system: TALE test backbone, repeat 5 RVD HN (synthetic (Xanthomonas TALE)); conditions: ELISA
[13] = test system: TALE test backbone, repeat 5 RVD QG (synthetic (Xanthomonas TALE)); conditions: ELISA
[14] = test system: TALE test backbone, repeat 5 RVD AD (synthetic (Xanthomonas TALE)); conditions: ELISA
[15] = test system: TALE test backbone, repeat 5 RVD ND (synthetic (Xanthomonas TALE)); conditions: ELISA
[16] = test system: TALE test backbone, repeat 5 RVD AT (synthetic (Xanthomonas TALE)); conditions: ELISA
[17] = test system: TALE test backbone, repeat 5 RVD YG (synthetic (Xanthomonas TALE)); conditions: ELISA
[18] = test system: TALE test backbone, repeat 5 RVD KI (Xanthomonas sp. (engineered)); conditions: RVD KI
[19] = test system: TALE test backbone, repeat 5 RVD NN (Xanthomonas sp. (engineered)); conditions: RVD NN
[20] = test system: TALE test backbone, repeat 5 RVD AN (synthetic (Xanthomonas TALE)); conditions: ELISA
[21] = test system: TALE test backbone, repeat 5 RVD VG (synthetic (Xanthomonas TALE)); conditions: ELISA
[22] = test system: TALE test backbone, repeat 5 RVD KG (synthetic (Xanthomonas TALE)); conditions: ELISA
[23] = test system: TALE test backbone, repeat 5 RVD LA (synthetic (Xanthomonas TALE)); conditions: ELISA
[24] = test system: TALE test backbone, repeat 5 RVD RI (synthetic (Xanthomonas TALE)); conditions: ELISA
[25] = test system: TALE test backbone, repeat 5 RVD RG (synthetic (Xanthomonas TALE)); conditions: ELISA
[26] = test system: TALE test backbone, repeat 5 RVD KT (synthetic (Xanthomonas TALE)); conditions: ELISA
[27] = test system: TALE test backbone, repeat 5 RVD TA (synthetic (Xanthomonas TALE)); conditions: ELISA
[28] = test system: TALE test backbone, repeat 5 RVD SG (synthetic (Xanthomonas TALE)); conditions: ELISA
[29] = test system: TALE test backbone, repeat 5 RVD NI (Xanthomonas sp. (engineered)); conditions: RVD NI
[30] = test system: TALE test backbone, repeat 5 RVD IP (synthetic (Xanthomonas TALE)); conditions: ELISA
[31] = test system: TALE test backbone, repeat 5 RVD DK (synthetic (Xanthomonas TALE)); conditions: ELISA
[32] = test system: TALE test backbone, repeat 5 RVD KS (synthetic (Xanthomonas TALE)); conditions: ELISA
[33] = test system: TALE test backbone, repeat 5 RVD IA (synthetic (Xanthomonas TALE)); conditions: ELISA
[34] = test system: TALE test backbone, repeat 5 RVD HA (synthetic (Xanthomonas TALE)); conditions: ELISA
[35] = test system: TALE test backbone, repeat 5 RVD NG (Xanthomonas sp. (engineered)); conditions: RVD NG
[36] = test system: TALE test backbone, repeat 5 RVD TP (synthetic (Xanthomonas TALE)); conditions: ELISA
[37] = test system: TALE test backbone, repeat 5 RVD PW (Xanthomonas sp. (engineered)); conditions: RVD PW; 0.00 on all four bases
[38] = test system: TALE test backbone, repeat 5 RVD NS (synthetic (Xanthomonas TALE)); conditions: ELISA
[39] = test system: TALE test backbone, repeat 5 RVD NA (synthetic (Xanthomonas TALE)); conditions: ELISA
[40] = test system: TALE test backbone, repeat 5 RVD KD (synthetic (Xanthomonas TALE)); conditions: ELISA
[41] = test system: TALE test backbone, repeat 5 RVD AA (synthetic (Xanthomonas TALE)); conditions: ELISA
[42] = test system: TALE test backbone, repeat 5 RVD GG (synthetic (Xanthomonas TALE)); conditions: ELISA
[43] = test system: TALE test backbone, repeat 5 RVD QA (synthetic (Xanthomonas TALE)); conditions: ELISA
[44] = test system: TALE test backbone, repeat 5 RVD HI (Xanthomonas sp. (engineered)); conditions: RVD HI
[45] = test system: TALE test backbone, repeat 5 RVD DH (synthetic (Xanthomonas TALE)); conditions: ELISA
[46] = test system: TALE test backbone, repeat 5 RVD SN (synthetic (Xanthomonas TALE)); conditions: ELISA
[47] = test system: TALE test backbone, repeat 5 RVD HD, standard framework (SEQ 333) (Xanthomonas sp. (engineered)); conditions: RVD HD
[48] = test system: TALEN 101141 (HD half repeat) (synthetic (Xanthomonas TALE)); experiment: cell_activity; conditions: paired with 101139
[49] = test system: TALEN 101124 (synthetic (Xanthomonas TALE)); experiment: cell_activity; conditions: paired with 101126

Sequence “CACCTGCAGCTGCCCAG (double strand) [101225 site]” has an activity [1] of 5 % NHEJ.
For “CTGGGCTCTCCCAT (double strand) [101138 site]”, the activity [2] was 25.6 % NHEJ.
Work on “TATAAATACCTTCT (double strand) [TALE13 target]” yielded an activity [3] of 1.1 % cleavage, an activity [4] of 98.5 % cleavage and an activity [5] of 99.3 % cleavage. It also gave an activity [6] of 97.8 % cleavage.
“CCCCCATTCCTAGAAGG (double strand) [101229 site]” was tested, and the activity [7] was 25.6 % NHEJ.
“TTGACAATCCT (double strand) [CAA target]” was tested, and the binding signal (normalized ELISA) [8] was 0.38, the binding signal (normalized ELISA) [9] was 0 and the binding signal (normalized ELISA) [10] was 0.73. It also gave a binding signal (normalized ELISA) [11] of 0.04, a binding signal (normalized ELISA) [12] of 0.5 and a binding signal (normalized ELISA) [13] of 0.21. It also gave a binding signal (normalized ELISA) [14] of 0.02, a binding signal (normalized ELISA) [15] of 0.06 and a binding signal (normalized ELISA) [16] of 1.29. For the same sequence, the binding signal (normalized ELISA) [17] was 0.12, the binding signal (normalized ELISA) [18] was 0.75 and the binding signal (normalized ELISA) [19] was 0.47. For the same sequence, the binding signal (normalized ELISA) [20] was 0.51, the binding signal (normalized ELISA) [21] was 0.05 and the binding signal (normalized ELISA) [22] was 0.47. It also gave a binding signal (normalized ELISA) [23] of 0.02, a binding signal (normalized ELISA) [24] of 0.65 and a binding signal (normalized ELISA) [25] of 0.32. The binding signal (normalized ELISA) [26] was 1, the binding signal (normalized ELISA) [27] was 0.15 and the binding signal (normalized ELISA) [28] was 0.36. For the same sequence, the binding signal (normalized ELISA) [29] was 0.6, the binding signal (normalized ELISA) [30] was 0.04 and the binding signal (normalized ELISA) [31] was 0. The binding signal (normalized ELISA) [32] was 0.95, the binding signal (normalized ELISA) [33] was 0.15 and the binding signal (normalized ELISA) [34] was 0.46. For the same sequence, the binding signal (normalized ELISA) [35] was 0.48, the binding signal (normalized ELISA) [36] was 0.16 and the binding signal (normalized ELISA) [37] was 0. For the same sequence, the binding signal (normalized ELISA) [38] was 0.51, the binding signal (normalized ELISA) [39] was 0.59 and the binding signal (normalized ELISA) [40] was 0.06. For the same sequence, the binding signal (normalized ELISA) [41] was 0.34, the binding signal (normalized ELISA) [42] was 0.49 and the binding signal (normalized ELISA) [43] was 0.2. For the same sequence, the binding signal (normalized ELISA) [44] was 0.67, the binding signal (normalized ELISA) [45] was 0.01 and the binding signal (normalized ELISA) [46] was 0.43. For the same sequence, the binding signal (normalized ELISA) [47] was 0.15.
Sequence “TCCTAGAAGGGCAGGC (double strand) [101141 site]” has an activity [48] of 6.7 % NHEJ.
Sequence “GCAGCTGCCCAGACCT (double strand) [101124 site]” has an activity [49] of 2.2 % NHEJ.
